Assay results as given in IntAct's records for PubMed 9012831.

B1: Tyrosine-protein kinase BTK (Homo sapiens), Q06187 (parent)
chain: MAAVILESIFLKRSQQKKKTSPLNFKKRLFLLTVHKLSYYEYDFERGRRGSKKGSIDVEKITCVETVVPEKNPPPERQIPRRGEESSEMEQISIIERFPYPFQVVYDEGPLYVFSPTEELRKRWIHQLKNVIRYNSDLVQKYHPCFWIDGQYLCCSQTAKNAMGCQILENRNGSLKPGSSHRKTKKPLPPTPEEDQILKKPLPPEPAAAPVSTSELKKVVALYDYMPMNANDLQLRKGDEYFILEESNLPWWRARDKNGQEGYIPSNYVTEAEDSIEMYEWYSKHMTRSQAEQLLKQEGKEGGFIVRDSSKAGKYTVSVFAKSTGDPQGVIRHYVVCSTPQSQYYLAEKHLFSTIPELINYHQHNSAGLISRLKYPVSQQNKNAPSTAGLGYGSWEIDPKDLTFLKELGTGQFGVVKYGKWRGQYDVAIKMIKEGSMSEDEFIEEAKVMMNLSHEKLVQLYGVCTKQRPIFIITEYMANGCLLNYLREMRHRFQTQQLLEMCKDVCEAMEYLESKQFLHRDLAARNCLVNDQGVVKVSDFGLSRYVLDDEYTSSVGSKFPVRWSPPEVLMYSKFSSKSDIWAFGVLMWEIYSLGKMPYERFTNSETAEHIAQGLRLYRPHLASEKVYTIMYSCWHEKADERPTFKILLSNILDVMDEES

Variants of: B1
Conditions: with gtf2i_human GTF2I

Effect of a mutation on the interaction, decreasing interaction:
Y223F
Y551F
R307K
